The experiment concerns the target T1, HLA-A*02:01 (human).
T1 construct: MHC monomers captured on streptavidin plates; the UV-sensitive peptide is cleaved and exchanged with the test peptide; also called peptide-receptive MHC molecules; MHC class I
Nature of the experiment: UV ligand-exchange ELISA (anti-b2m); ++ = exchange yield >=20%. The source says:
Candidate peptides for T cell based therapies according to the present invention were further tested for their MHC binding capacity (affinity). The individual peptide-MHC complexes were produced by UV-ligand exchange, where a UV-sensitive peptide is cleaved upon UV-irradiation, and exchanged with the peptide of interest as analyzed. Only peptide candidates that can effectively bind and stabilize the peptide-receptive MHC molecules prevent dissociation of the MHC complexes. To determine the yield of the exchange reaction, an ELISA was performed based on the detection of the light chain (β2m) of stabilized MHC complexes. The assay was performed as generally described in Rodenko et al. (Rodenko et al., 2006).
96 well MAXISorp plates (NUNC) were coated over night with 2 ug/ml streptavidin in PBS at room temperature, washed 4× and blocked for 1 h at 37° C. in 2% BSA containing blocking buffer. Refolded HLA-A*02:01/MLA-001 monomers served as standards, covering the range of 15-500 ng/ml. Peptide-MHC monomers of the UV-exchange reaction were diluted 100 fold in blocking buffer. Samples were incubated for 1 h at 37° C., washed four times, incubated with 2 ug/ml HRP conjugated anti-β2m for 1 h at 37° C., washed again and detected with TMB solution that is stopped with […]. Absorption was measured at 450 nm. Candidate peptides that show a high exchange yield (preferably higher than 50%, most preferred higher than 75%) are generally preferred for a generation and production of antibodies or fragments thereof, and/or T cell receptors or fragments thereof, as they show sufficient avidity to the MHC molecules and prevent dissociation of the MHC complexes.
(In general: In an ELISA, binding on a coated surface is turned into a signal by an enzyme label.)

The text below walks through data of patent publication US20160279215A1, “NOVEL PEPTIDES AND COMBINATION OF PEPTIDES FOR USE IN IMMUNOTHERAPY AGAINST VARIOUS TUMORS” (immatics biotechnologies GmbH, priority 2015, published 2016).

KQMSISTGL yielded a peptide exchange yield of 20 to 50%.

Turning to SLNKQIETV, the peptide exchange yield was in the range of 20 to 50%.

The molecule HLQEKLQSL had a peptide exchange yield of 20 to 50%.

Take KLLEEVQLL: the peptide exchange yield fell in the range of 20 to 50%.

In the case of SLDKDIVAL, the peptide exchange yield is 20 to 50%.

In the case of ALGDKFLLRV, the peptide exchange yield lay within 20 to 50%.

In turn, NLLIDDKGTIKL returned a peptide exchange yield of 20 to 50%.

In turn, TLYQGLPAEV displayed a peptide exchange yield of 20 to 50%.

TLDRNSLYV yielded a peptide exchange yield of 20 to 50%.

As to KVFELDLVTL, the peptide exchange yield lay in the range of 20 to 50%.

QIADIVTSV returned a peptide exchange yield of 20 to 50%.

For the molecule MTLSEIHAV, the peptide exchange yield was 20 to 50%.

For the molecule SILKEDPFL, the peptide exchange yield was in the range of 20 to 50%.

For QLVQRVASV, the peptide exchange yield lay in the range of 20 to 50%.

Molecule LLLESDPKVYSL registered a peptide exchange yield of 20 to 50%.

For the molecule TLYPGRFDYV, the peptide exchange yield was in the range of 20 to 50%.

With FVMEGEPPKL, the peptide exchange yield lay in the range of 20 to 50%.

On to LDSEALLTL, for which the peptide exchange yield lay in the range of 20 to 50%.

SLMEKNQSL displayed a peptide exchange yield of 20 to 50%.

Molecule VQSGLRILL returned a peptide exchange yield of 20 to 50%.

For GLAEFQENV, the peptide exchange yield was 20 to 50%.

On to VLGEEQEGV, for which the peptide exchange yield is 20 to 50%.

Turning to KLMDPGSLPPL, the peptide exchange yield was 20 to 50%.

As to ALLEEEEGV (also called MAGEA4-003), the peptide exchange yield was 20 to 50%.

On to FLLDKPQDL, for which the peptide exchange yield was 20 to 50%.

Consider QIVELIEKI, for which the peptide exchange yield lay within 20 to 50%.

The molecule VLQQESNFL had a peptide exchange yield of 20 to 50%.

Regarding VLMDEGAVLTL, the peptide exchange yield was 20 to 50%.

Consider LLTGVFAQL, for which the peptide exchange yield was 20 to 50%.

Consider ALVEKGEFAL, for which the peptide exchange yield was in the range of 20 to 50%.

As for VIIKGLEEI, the peptide exchange yield lay in the range of 20 to 50%.

IMLNSVEEI: the peptide exchange yield is 20 to 50%.

For the molecule KMISAIPTL, the peptide exchange yield lay within 20 to 50%.

Turning to TLHDQVHLL (also called ESR1-001), the peptide exchange yield is 20 to 50%.

HLNNDRNPL: the peptide exchange yield was 20 to 50%.

Molecule TLLPSSGLVTL gave a peptide exchange yield of 20 to 50%.

Turning to TIGIPFPNV, the peptide exchange yield fell in the range of 20 to 50%.

In the case of ALSTVTPRI, the peptide exchange yield lay within 20 to 50%.

With SVADLAHVL, the peptide exchange yield lay in the range of 20 to 50%.

The molecule YLYELEHAL gave a peptide exchange yield of 20 to 50%.

For the molecule IKVTDPQLLEL, the peptide exchange yield lay in the range of 20 to 50%.

Molecule ALDSTIAHL registered a peptide exchange yield of 20 to 50%.

As to SLLNQPKAV, the peptide exchange yield lay within 20 to 50%.

As for AVPPPPSSV, the peptide exchange yield lay within 20 to 50%.

Turning to GVVPTIQKV (also called GWPTIQKV), the peptide exchange yield lay within 20 to 50%.

SLYALHVKA showed a peptide exchange yield of 20 to 50%.

In turn, KLIGNIHGNEV had a peptide exchange yield of 20 to 50%.

Consider ILTNKVVSV, for which the peptide exchange yield was in the range of 20 to 50%.

For the molecule FLFVDPELV, the peptide exchange yield lay within 20 to 50%.
